# From the DeepSol protein solubility set
# Test: soluble on expression in E. coli; label from the status in PepcDB or PDB records
row,Sequence,soluble on expression in E. coli
1,MSGLSMRNPERRIETNPFDVDAWNLLLREHQSRPIDQERDFYESLVKQFPNSGRYWKAYIEHELRSKNFENVEKLFSRCLVSVLNIDLWKCYIHYVFETKGQRDQYREEMAKAYDFALEKVGMDVQAYSIFTEYIAFLKKVPAVGQYAENQRITAVRKIYQKALATPMHNLELIWNDYCTYEKAINITLAEKLIAERGKEYQNARRVEKDLQQMTRGLNRQAVSVPPKGTATEFKQVELWKNLIAWEKTNPLQTEEYGQHARRVVYTYEQSLLCLGYYPDIWYEAAMFLQEASHTLDEKGDVKMAQVLKLETISLYERAITGLMKESKLLYFAYADFQEEHKQFEAVKNIYDRLLGIEHINPTLTYVQLMRFIRRSEGPNNARLVFKRAREDKRTGYQVFVAAALLEYNCMKDKEVAIRVFKLGLKKYENEPEFGLAYADFLSNLNEDNNTRVVFERILTSSKLPADKSIRIWDRFLDFESCVGDLASILKVEKRRKTAYEEAQKDQTMNHSMLVIDRYKFMDLMPCSGEQLKLIGYNALKGTESIAGPSFVGSKNVPTHGPQAASAIMGGAGGHADVARYGFPRPDISQMIPFKPRVNCTASFHPVPGGVFPPPQSVAHLMSLLPPPTCFIGPFINVELLCNMINNMQLPNVSYPKSEDNMLGPMLEQDVKKDMYQLLATTSDPSAVVRSSALSDLKRKRGDSDDEEDYSHLGAVIGSLGSRDAYKRRMNKKNE,not soluble
2,MSGPEELEAGASDSNAGGSSRQGQEQERVEPVLEGVPQPNDQESADEDLTARQPPIQPQVPNASDNLQVPPNLEYLIAVNPSQLITTIQIGAEVARLEELEDEYRQELELIRMTESLGEELLQKENELRSRAGYLGRLDVLENRRNYEDEAAENLAIRTVQNRVLLLRRARAELYERERIARKTFIWRLRRFKNPTDQSVNTWMETLNDRLNRVANSWERRREPHEQAIRDYERLVATRQRTEEDRRRERASNRAGPSNQEDYDSEDEDEHHVDELPDLLELLSLVVNPVIGGGGISTNRAEYLNPRGTEGLGADDPDLNDSGGTVYQSDEEESEDEAEIDHQEGPSNWRPKRPRRDDDEGGSGSSASMWNAPSTSSQALGRSC,not soluble
3,MSGRSVRAETRSRAKDDIKKVMAATERVRRWEKKWVTVGDTSLRIFKWVPVTETKQIYKPKGAGPAVRELKGFPTDVVLENARSVLLDFQDDNSNQSFLSDAYQSNTKVDSSSNSSPQHVSEAVSPSHPPYYRTEDSQPPTLGQESMEAEREASTTSSEVTDEPPTLIKEDVLSLSTQEEEEAIGAPPLKRVCTEHNSTVS,not soluble
4,MSGSGMTPMLQATPEQARTLGAEEPIRPGQDRLAHAPADHPELPQPKIGILLANLGTPDNYDYWSMRRYLNEFLSDKRVIDYPAWKWQPLLQILILSKRPFSSGANYKLIWNHDKGESPLMTITKDQTAAIAAEIRSLYGNRVMVDFCMRYGNPSTESRVRAMVEAGCEKILFFPLYPHYAGATSATANDEFFRAMMKEKRQPAVRTVPEYYDNPLYIDALAQSVERAYAQLDHRPDVLVASYHGMPKRYLMAGDPYHCQCAKTSRLLRERLGWEKGAIDTTFQSVFGPEEWLKPYTVEHVAELARAGKKRIAVIAPAFSADCIETLEEINGEIREAFEEAGGEEFTYIPCLNDDEAHIRALVSVIEDNLAGWLARG,not soluble
5,MSGSVSGCGSGGCSIVWFRRDLRVEDNPALAAAVRAGPVIALFVWAPEEEGHYHPGRVSRWWLKNSLAQLDSSLRSLGTCLITKRSTDSVASLLDVVKSTGASQIFFNHLYDPLSLVRDHRAKDVLTAQGIAVRSFNADLLYEPWEVTDELGRPFSMFAAFWERCLSMPYDPESPLLPPKKIISGDVSKCVADPLVFEDDSEKGSNALLARAWSPGWSNGDKALTTFINGPLLEYSKNRRKADSATTSFLSPHLHFGEVSVRKVFHLVRIKQVAWANEGNEAGEESVNLFLKSIGLREYSRYISFNHPYSHERPLLGHLKFFPWAVDENYFKAWRQGRTGYPLVDAGMRELWATGWLHDRIRVVVSSFFVKVLQLPWRWGMKYFWDTLLDADLESDALGWQYITGTLPDSREFDRIDNPQFEGYKFDPNGEYVRRWLPELSRLPTDWIHHPWNAPESVLQAAGIELGSNYPLPIVGLDEAKARLHEALSQMWQLEAASRAAIENGSEEG,soluble
6,MSHGDQLEQYQDQYFDCIKKYDMPAALEVLELIAESCIELNDDDPLIEACERGASYLKCCLKYENLVNLHASQKINDHTLFFLNLEVRRRSTYQCFATTRSFLTPHRKRQLAKTMNAEPRIFAFGLNANNNLGVDTVQSALVDVPTEIYVPPVYEMKMSNFHSVFWCHDGKFFGCGETKNFMISKPDSELPRIVKFPMELDIQIWRNEMIVGIKALENGTLFQTDRRLYFVGDYQKSKAYLKTFHDEEFDMVTQLPYATPNFWITQSRPVSSISAYKLDDKKNVTILRVKSVSYWIQVYPDYWTELNPGYIKKRPVVYLLDDVEVKNIRIETVGCNIIYVVHELTLYFGKMTMTMVENSDGDENNLDNYILFVELHEYRTRSPYLCTGVATNKAQGVLMKCGDFPCVGFDYLEIAENRFRGNVQKYMFETVEKFMESYDVFENDEVSMDYLLSETEKAFNSGVMEQEIKLDWLGRTEKKYRYSNFYSFLGYVSQPRLLTGPPKCFTTDIDTLLTYKDPKLVARHRMKQLFEEFERVNYPGTDVWKPTGFLKSHDIPEEDNLSEGRYRSAAMKWCVNEFMEQFNVYRENPVFNPDNLVYKEILKYLINVIWYALDQWIIITEKTENDRVAPLLREIEHKVPDDEILFQTVYPEKILENRLREGSLKMEDLPEPLNIRVTFLLRHRDPKLKPTRFNLNTCRTFFNFLYPALEDFIDENNVLDLNKLYPDDVAIHRLIAQTYFVGHGLTDLEGSEKYDRSVYDSKGVRLEPMVRFMRKGREHFRGFLRRVPSTSAPGDGPIVFPTADHQAFFKMQRVLYSRLPLTEKLPIDIEDDLYSAAIVGLQDKRVLEVLTMDEKLRILEWYEKAKMPEALMDLLKQCIIESTSKNYYHIRYLFSQYPIMTQRFIAQYRPGIILWHRSPIPNPQIHHVRIITEMWPKNDFERTTRIPRKKFIKNGIVEDSKFYMIGSYLRRDAYKDIHYPAQKTTKLTELFNIDFPVNGPKKSKNQMMLITFPSREIVEEEEPPQEAEQSPSPDPEKIAKRREELRKKIAEKLAASKKKKKR,not soluble
7,MSHIQRETSCSRPRLNSNLDADLYGYRWARDNVGQSGATIYRLYGKPNAPELFLKHGKGSVANDVTDEMVRLNWLTAFMPLPTIKHFIRTPDDAWLLTTAIPGKTAFQVLEEYPDSGENIVDALAVFLRRLHSIPVCNCPFNSDRVFRLAQAQSRMNNGLVDASDFDDERNGWPVEQVWKEMHKLLPFSPDSVVTHGDFSLDNLIFDEGKLIGCIDVGRVGIADRYQDLAILWNCLGEFSPSLQKRLFQKYGIDNPDMNKLQFHLMLDEFF,soluble
8,MSHLALKDLFSGFFVIDDEEEVEVPDKQQQVNEAPAKEQSQQTTKQNAIKSVPQKSASRYTTTSEERNNRMSNYSKNNSRNVVTMNNATPNNASQESSKMCLFEPRVFSDTQDIADELKNRRATLVNLQRIDKVSAKRIIDFLSGTVYAIGGDIQRVGTDIFLCTPDNVEVAGSITDHIENMEHSFDLEHHHHHH,not soluble
9,MSHSEAGQAASVRRVLAVIPARGGSKGVPAKNLLPVGGVPLVARAVRECRATRLVTDVVVSTDDHAIAAAAREAGAEVVLRPAAIAGDTATSEAAVLHAMDTHEALHGAAVDVVLLVQCTSPFIVREDVDGVVHAIVGKGADTALTVAPFHGFVWRDADDAPGALGAERAAVEGGTDTLVTGTATSGGYGINHDKSFRPRRQDRPQDLLETGAVYGMDATGFREARHRFFGRTELVRTDPARVLEIDDPHDLARARALAPLFDANRPGALPTAEDIDAVVLDFDGTQTDDRVLIDSDGREFVSVHRGDGLGIAALRKSGLTMLILSTEQNPVVAARARKLKIPVLHGIDRKDLALKQWCEEQGIAPERVLYVGNDVNDLPCFALVGWPVAVASAHDVVRGAARAVTTVPGGDGAIREIASWILGPSLDSLDKLEHHHHHH,not soluble
10,MSHSQRGLNWFNALSADASEVTGLPASLKVADGLLGEQPVRFVAVIADTNNRFPRARQGEVGLLEGWGLAKAVDDAIEQDRERAEKRALIAIVDVPSQAYGRREEALGIHQALAGAVDSYARARLAGHPVIGLLVGKAMSGAFLAHGYQANRLIALRDPGVMVHAMGKASAARVTQRSVDDLEKLAASIAPMAYDIDSYASLGLLWETLSVSQIEQPAVDDLTQVRQVLSSAIKDVQASGVDLSSRLGASNRKASAHVRQLLRAQW,not soluble
11,MSIASVASVFKGEHAVGSTVTVRGWVRTRRDSKAGISFLAVYDGSCFNPIQGVVPNSLENYDNEVLKLTAGCSVIVTGDIVESPGAGQAYELQVTAVEVTGWVEDPDTYPMAAKRHSIEHLRELAHLRPRTNIIGAVARVRNCLSQAIHRFYHENGFVWVSTPLITASDCEGAGEMFRVSTLDMENLPRTSDGKVDYDKDFFGKEAFLTVSGQLNGETYACALSKIYTFGPTFRAENSNTSRHLAEFWMVEPEVAFATLNDIAGLAEGMLKYAFNAVLTERMDDLQFFAQHVDKTVIERLQSFVSSDFAQVDYTDAVEILQKSGREFEFPVSWGIDLSSEHERYLAEEHFKAPVVVKNYPKDIKAFYMRLNEDGKTVAAMDVLAPGIGEIIGGSQREERLDVLDMRLEEMDLNKEDYWWYRDLRRYGTVPHAGFGLGFERLVSYVTGVSNIRDVIPFPRAPRTANFLEHHHHHH,soluble
12,MSIHVNEANLTFHLQTDHTSYIFQIMKNGEAGQIYYGPRIHVQPTYQNLMSQEWRDATPSLNEENPNFQPATIKAEYASLGKGDFRQPAFQVTQANGSRITELTYDHYQLLTGKQRLANLPSTFDDTDDDAQTLVVSFNDRITGLALDLNYSIFPHQDVIVKSAKFTNPSSEKLVLNRALSSQLDLPDANYDLIQFSGTWARERHLYRHPLRPGMQSISSLRMASSHQQNPFMMLARPQTTDEQGAVFGFNLVYSGNFLDAIEVDQYSTSRILTGINPDEFGWNLAPQATFQTPEAILSYTSAGMNQLSQQMASFYQQHLVNPRFAHEERPVLINNWEATYFDFNEAKLMTIVNQAKRLGIEMFVLDDGWFGHRDDDTTSLGDWFVDQRKFPDGIEHFSQAVHQQGMKFGLWFEPEMVSVDSDLYQQHPDWLIHAPKSTPTPGRHQFVLDMARPEVVDYLFKLMSQMIESANLDYIKWDMNRYATEMFSSRLTSDQQLELPHRYILGVYQLYARLTQAYPNVLFESCASGGGRFDLGMMYYAPQAWTSDDTDAAERLLIQFGTSYGYPQAMMGAHVSAVPNDQMGRITSLKTRGAVAFFGDLGYELDITKMAPTELDQVKKQVAFYKCYRQLFQFGKFYRIDSPFVEDGNVTSWQVVSDDQKQAIAARYQLLNHPNAPYTRFYFKGLRPNQRYQINDDPSTYYGDELMNAGYFVPTILADGQESKDFYTQLFVVTAILEHHHHHH,soluble
13,MSIKEQTLMTPYLQFDRNQWAALRDSVPMTLSEDEIARLKGINEDLSLEEVAEIYLPLSRLLNFYISSNLRRQAVLEQFLGTNGQRIPYIISIAGSVAVGKSTTARVLQALLSRWPEHRRVELITTDGFLHPNQVLKERGLMKKKGFPESYDMHRLVKFVSDLKSGVPNVTAPVYSHLIYDVIPDGDKTVVQPDILILEGLNVLQSGMDYPHDPHHVFVSDFVDFSIYVDAPEDLLQTWYINRFLKFREGAFTDPDSYFHNYAKLTKEEAIKTAMTLWKEINWLNLKQNILPTRERASLILTKSANHAVEEVRLRK,soluble
14,MSILEQVQPIETMLPERYYTMSTEDMEKRVREIKEKMGKMLFIPGHHYQKDEVVQFSDAVGDSLQLAQVAASNKDAKYIVFCGVHFMAETADMLTTDDQVVILPDMRAGCSMADMADIEQTERAWKELTKLFGDTMIPLTYVNSTAAIKAFCGRNGGATVTSSNAKQMVSWAFTQKERLVFLPDQHLGRNTAYDLGIPLDKMAVWDPHTDSLEYDGDIEEIQVILWKGHCSVHQNFTVKNIESVRKNHSDMNIIVHPECCYEVVAASDYAGSTKYIIDMIESAPPGSKWAIGTEMNLVNRIIQQHPDKEIVSLNPFMCPCLTMNRIDLPHLLWALETIERGEEINVISVDKQVTAEAVLALNRMLERV,not soluble
